Data set [1] has as its target MBP-His6-GCN4-Dimer. In words: SEC-MALS; FPLC coupled with static light scattering; Superose 12 10/300 GL; 50 mM Tris pH 8.2, 100 mM NaCl, 1 mM EDTA, 2 mM DTT; loading concentration not shown.
Data set [2] concerns the molecule itself. As to the kind of experiment: SEC-MALS; FPLC coupled with static light scattering; Superose 12 10/300 GL; 50 mM Tris pH 8.2, 100 mM NaCl, 1 mM EDTA, 2 mM DTT; loading concentrations 30 μM and 150 μM. (SEC sorts molecules by how far they enter the pores of the column.)

As to MBP-His6-GCN4-Dimer, the stoichiometry N (commonly a count of units in the complex or per binding partner) in data set [1] stood at 2.

B1: PrLD-SAMWT fusion protein (FUS PrLD fused to the Shank3 SAM domain; MBP-PrLD-SAMWT-GB1) (other, UniProt P56959 1-212, looked up)
chain: CMASNDYTQQATQSYGAYPTQPGQGYSQQSSQPYGQQSYSGYGQSADTSGYGQSSYGSSYGQTQNTGYGTQSAPQGYGSTGGYGSSQSSQSSYGQQSSYPGYGQQPAPSSTSGSYGGSSQSSSYGQPQSGGYGQQSGYGGQQQSYGQQQSSYNPPQGYGQQNQYNSSSGGGGGGGGGNYGQDQSSMSGGGGGGGYGNQDQSGGGGGGYGGGQQGPRRPFQQKPLQLWSKFDVGDWLESIHLGEHRDRFEDHEIEGAHLPALTKEDFVELGVTRVGHRMNIERALRQLDGS
notes: FUS prion-like domain (PrLD), UniProt P56959, segment 1-212; SAM domain of Shank3 (aa 1654-1730), UniProt Q4ACU6, fused to the C-terminal end of PrLD; The light-scattering legend calls it only 'PrLD-SAMWT fusion protein (theoretical MW 80.7 kDa)'; also called PrLD-SAM chimera; source: E. coli BL21 (DE3), purified (Ni2+-NTA, size-exclusion chromatography); not shown: MBP, N-terminal, kept; GB1, …
As to B1, the binding result in data set [2] was “binds”.

Source of the values: PMC10264073, “Biological condensates form percolated networks with molecular motion properties distinctly different from dilute solutions” (eLife, 2023).
